# Earlier results, collected in publication PMC9811451.
# Molecular target: ACE2 (Homo sapiens) (UniProt Q9BYF1)
# Sequence (Q9BYF1 18-740): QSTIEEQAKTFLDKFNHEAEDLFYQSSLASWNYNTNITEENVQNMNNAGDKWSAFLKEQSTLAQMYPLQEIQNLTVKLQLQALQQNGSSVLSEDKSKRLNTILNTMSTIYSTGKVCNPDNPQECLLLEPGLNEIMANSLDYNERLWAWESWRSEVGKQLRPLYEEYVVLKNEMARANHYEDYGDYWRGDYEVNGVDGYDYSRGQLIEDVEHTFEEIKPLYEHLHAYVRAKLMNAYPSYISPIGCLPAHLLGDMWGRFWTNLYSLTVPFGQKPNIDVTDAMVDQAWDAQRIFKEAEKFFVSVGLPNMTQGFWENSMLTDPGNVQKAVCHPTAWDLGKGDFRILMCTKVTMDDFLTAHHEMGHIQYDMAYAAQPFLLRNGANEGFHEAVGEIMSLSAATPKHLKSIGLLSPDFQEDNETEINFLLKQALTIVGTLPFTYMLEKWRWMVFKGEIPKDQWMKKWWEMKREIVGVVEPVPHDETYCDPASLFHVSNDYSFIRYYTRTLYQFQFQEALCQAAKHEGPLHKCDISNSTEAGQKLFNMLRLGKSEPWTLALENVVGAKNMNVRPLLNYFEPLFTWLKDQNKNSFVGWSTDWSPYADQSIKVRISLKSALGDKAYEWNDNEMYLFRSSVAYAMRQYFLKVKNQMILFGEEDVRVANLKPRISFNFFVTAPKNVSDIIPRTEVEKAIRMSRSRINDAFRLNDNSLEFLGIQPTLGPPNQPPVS
substance,measurement,value
Spike (from UniProt P0DTC2),Kd,4 nM
